{"source": "paper PMC8961635", "key": {"human mitoNEET (human)": {"target": "human mitoNEET (human)", "experiment": "SEC-MALS; holo-form ([2Fe-2S] cluster bound); 100 µL at ~2 mg·mL^−1 injected on Superdex 200 increase 10/300 GL, 0.5 mL·min^−1, 50 mM sodium phosphate pH 7.5, 50 mM NaCl, 10 mM DTT; monomer or dimer"}, "[1]": {"target": "CyuA from Methanococcus maripaludis (Methanococcus maripaludis)", "experiment": "SEC-MALS; apo-form (as-purified protein, <5% cluster); 100 µL at ~2 mg·mL^−1 injected on Superdex 200 increase 10/300 GL, 0.5 mL·min^−1, 25 mM HEPES pH 7.5, 300 mM NaCl, 5 mM DTT; monomer or dimer"}, "[2]": {"target": "CyuA from Methanococcus maripaludis (Methanococcus maripaludis)", "experiment": "SEC-MALS; holo-form ([4Fe-4S] cluster reconstituted anaerobically; analysed aerobically immediately after thawing); 100 µL at ~2 mg·mL^−1 injected on Superdex 200 increase 10/300 GL, 0.5 mL·min^−1, 25 mM HEPES pH 7.5, 300 mM NaCl, 5 mM DTT; monomer or dimer"}, "[3]": {"target": "LarE from Methanococcus maripaludis (Methanococcus maripaludis)", "experiment": "SEC-MALS; apo-form (as-purified protein, <5% cluster); 100 µL at ~2 mg·mL^−1 injected on Superdex 200 increase 10/300 GL, 0.5 mL·min^−1, 25 mM HEPES pH 7.5, 300 mM NaCl, 5 mM DTT; monomer or dimer"}, "[4]": {"target": "LarE from Methanococcus maripaludis (Methanococcus maripaludis)", "experiment": "SEC-MALS; holo-form ([4Fe-4S] cluster reconstituted anaerobically; analysed aerobically immediately after thawing); 100 µL at ~2 mg·mL^−1 injected on Superdex 200 increase 10/300 GL, 0.5 mL·min^−1, 25 mM HEPES pH 7.5, 300 mM NaCl, 5 mM DTT; monomer or dimer"}, "human CISD2 (human)": {"target": "human CISD2 (human)", "experiment": "SEC-MALS; holo-form ([2Fe-2S] cluster bound); 100 µL at ~2 mg·mL^−1 injected on Superdex 200 increase 10/300 GL, 0.5 mL·min^−1, 50 mM sodium phosphate pH 7.5, 50 mM NaCl, 10 mM DTT; monomer or dimer"}}}
{"substance": "human mitoNEET (domain or fragment)", "values": [{"measurement": "stoichiometry N", "setting": "human mitoNEET (human)", "value": 2}]}
{"substance": "CyuA from Methanococcus maripaludis (enzyme)", "values": [{"measurement": "stoichiometry N", "setting": "[1]", "value": 2}, {"measurement": "stoichiometry N", "setting": "[2]", "value": 2}]}
{"substance": "LarE from Methanococcus maripaludis (enzyme)", "values": [{"measurement": "stoichiometry N", "setting": "[3]", "value": 2}, {"measurement": "stoichiometry N", "setting": "[4]", "value": 2}]}
{"substance": "human CISD2 (domain or fragment)", "values": [{"measurement": "stoichiometry N", "setting": "human CISD2 (human)", "value": 2}]}
